Here are results for seven molecules from patent US20210292397A1 (LA TROBE UNIVERSITY, published 2021).

B4: Ag43a passenger domain (Ag43a^α) from UPEC strain CFT073 (other)
chain: ADIVVHPGETVNGGTLVNHDNQFVSGTANGVTVSTGLELGPDSDENTGGQWIKAGGTGRNTTVTANGRQIVQAGGTASDTVIRDGGGQSLNGLAVNTTLDNRGEQWVHGGGKAAGTIINQDGYQTIKHGGLATGTIVNTGAEGGPESENVSSGQMVGGTAESTTINKNGRQVIWSSGMARDTLIYAGGDQTVHGEAHNTRLEGGNQYVHNGGTATETLINRDGWQVIKEGGTAAHTTINQKGKLQVNAGGKASDVTQNTGGALVTSTAATVTGTNRLGAFSVVAGKADNVVLENGGRLDVLSGHTATNTRVDDGGTLDIRNGGAATTVSMGNGGVLLADSGAAVSGTRSDGKAFSIGGGQADALMLEKGSSFTLNAGDTATDTTVNGGLFTARGGTLAGTTTLNNGAILTLSGKTVNNDTLTIREGDALLQGGSLTGNGSVEKSGSGTLTVSNTTLTQKAVNLNEGTLTLNDSTVTTDVIAQRGTALKLTGSTVLNGAID
notes: also called Ag43^α; α^43a

Series [1] concerns the target B4.
Series [2] deals with the molecule itself. Kind of series: crystal structure (FIG. 12B).
Series [3] concerns the molecule itself. In words: crystal structure (FIG. 12D).
Series [4] deals with the molecule itself. In words: crystal structure (FIG. 1B).
Series [5] concerns the molecule itself. Kind of series: crystal structure (FIG. 12A).
The target in series [6] is T1, Fibrinogen.
T1 construct: also called human fibrinogen
T1 alpha: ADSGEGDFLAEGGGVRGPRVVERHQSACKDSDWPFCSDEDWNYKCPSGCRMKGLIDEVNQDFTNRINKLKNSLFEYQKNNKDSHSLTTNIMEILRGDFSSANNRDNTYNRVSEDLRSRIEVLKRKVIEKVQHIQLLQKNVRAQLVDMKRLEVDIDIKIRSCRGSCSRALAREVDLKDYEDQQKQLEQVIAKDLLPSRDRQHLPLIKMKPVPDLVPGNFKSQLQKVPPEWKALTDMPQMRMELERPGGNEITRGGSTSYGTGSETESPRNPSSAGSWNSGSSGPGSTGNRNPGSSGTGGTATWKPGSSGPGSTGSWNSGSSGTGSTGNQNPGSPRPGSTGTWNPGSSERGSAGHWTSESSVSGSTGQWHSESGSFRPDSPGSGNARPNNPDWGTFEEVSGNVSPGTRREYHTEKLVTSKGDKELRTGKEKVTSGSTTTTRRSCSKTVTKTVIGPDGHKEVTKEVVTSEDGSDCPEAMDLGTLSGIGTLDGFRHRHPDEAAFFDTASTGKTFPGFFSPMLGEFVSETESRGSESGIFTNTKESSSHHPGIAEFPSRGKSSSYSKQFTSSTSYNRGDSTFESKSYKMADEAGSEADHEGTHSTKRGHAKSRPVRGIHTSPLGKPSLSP
T1 beta: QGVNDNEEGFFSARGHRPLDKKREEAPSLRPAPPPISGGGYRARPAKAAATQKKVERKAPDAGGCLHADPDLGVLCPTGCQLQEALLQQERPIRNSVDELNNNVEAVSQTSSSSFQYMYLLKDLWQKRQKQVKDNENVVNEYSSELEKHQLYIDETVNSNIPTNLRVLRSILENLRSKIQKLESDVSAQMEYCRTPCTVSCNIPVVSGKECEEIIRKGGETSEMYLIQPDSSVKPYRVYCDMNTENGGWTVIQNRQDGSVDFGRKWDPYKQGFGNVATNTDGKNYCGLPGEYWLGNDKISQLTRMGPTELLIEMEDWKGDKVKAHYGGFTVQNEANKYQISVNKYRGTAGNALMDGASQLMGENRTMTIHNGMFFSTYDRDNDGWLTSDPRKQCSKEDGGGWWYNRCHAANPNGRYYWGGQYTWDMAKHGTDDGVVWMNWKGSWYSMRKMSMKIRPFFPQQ
T1 gamma: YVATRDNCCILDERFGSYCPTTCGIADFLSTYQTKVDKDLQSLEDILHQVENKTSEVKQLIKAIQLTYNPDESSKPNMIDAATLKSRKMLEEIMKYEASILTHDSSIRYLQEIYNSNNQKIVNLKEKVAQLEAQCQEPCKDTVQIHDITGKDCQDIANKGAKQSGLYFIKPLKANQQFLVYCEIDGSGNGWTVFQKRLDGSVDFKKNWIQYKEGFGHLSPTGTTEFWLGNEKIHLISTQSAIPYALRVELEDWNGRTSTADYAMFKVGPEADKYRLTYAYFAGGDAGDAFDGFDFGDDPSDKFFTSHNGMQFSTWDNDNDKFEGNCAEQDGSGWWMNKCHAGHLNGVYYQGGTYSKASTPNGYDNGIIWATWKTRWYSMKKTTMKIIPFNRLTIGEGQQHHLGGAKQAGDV
Kind of series: ELISA, absorbance at 405 nm, n=9, PBS as control. (In general: In an ELISA, binding on a coated surface is turned into a signal by an enzyme label.)

In series [7] the target is human fibronectin (human, UniProt P02751 32-2477).
Sequence of human fibronectin (P02751 32-2477 limits assumed): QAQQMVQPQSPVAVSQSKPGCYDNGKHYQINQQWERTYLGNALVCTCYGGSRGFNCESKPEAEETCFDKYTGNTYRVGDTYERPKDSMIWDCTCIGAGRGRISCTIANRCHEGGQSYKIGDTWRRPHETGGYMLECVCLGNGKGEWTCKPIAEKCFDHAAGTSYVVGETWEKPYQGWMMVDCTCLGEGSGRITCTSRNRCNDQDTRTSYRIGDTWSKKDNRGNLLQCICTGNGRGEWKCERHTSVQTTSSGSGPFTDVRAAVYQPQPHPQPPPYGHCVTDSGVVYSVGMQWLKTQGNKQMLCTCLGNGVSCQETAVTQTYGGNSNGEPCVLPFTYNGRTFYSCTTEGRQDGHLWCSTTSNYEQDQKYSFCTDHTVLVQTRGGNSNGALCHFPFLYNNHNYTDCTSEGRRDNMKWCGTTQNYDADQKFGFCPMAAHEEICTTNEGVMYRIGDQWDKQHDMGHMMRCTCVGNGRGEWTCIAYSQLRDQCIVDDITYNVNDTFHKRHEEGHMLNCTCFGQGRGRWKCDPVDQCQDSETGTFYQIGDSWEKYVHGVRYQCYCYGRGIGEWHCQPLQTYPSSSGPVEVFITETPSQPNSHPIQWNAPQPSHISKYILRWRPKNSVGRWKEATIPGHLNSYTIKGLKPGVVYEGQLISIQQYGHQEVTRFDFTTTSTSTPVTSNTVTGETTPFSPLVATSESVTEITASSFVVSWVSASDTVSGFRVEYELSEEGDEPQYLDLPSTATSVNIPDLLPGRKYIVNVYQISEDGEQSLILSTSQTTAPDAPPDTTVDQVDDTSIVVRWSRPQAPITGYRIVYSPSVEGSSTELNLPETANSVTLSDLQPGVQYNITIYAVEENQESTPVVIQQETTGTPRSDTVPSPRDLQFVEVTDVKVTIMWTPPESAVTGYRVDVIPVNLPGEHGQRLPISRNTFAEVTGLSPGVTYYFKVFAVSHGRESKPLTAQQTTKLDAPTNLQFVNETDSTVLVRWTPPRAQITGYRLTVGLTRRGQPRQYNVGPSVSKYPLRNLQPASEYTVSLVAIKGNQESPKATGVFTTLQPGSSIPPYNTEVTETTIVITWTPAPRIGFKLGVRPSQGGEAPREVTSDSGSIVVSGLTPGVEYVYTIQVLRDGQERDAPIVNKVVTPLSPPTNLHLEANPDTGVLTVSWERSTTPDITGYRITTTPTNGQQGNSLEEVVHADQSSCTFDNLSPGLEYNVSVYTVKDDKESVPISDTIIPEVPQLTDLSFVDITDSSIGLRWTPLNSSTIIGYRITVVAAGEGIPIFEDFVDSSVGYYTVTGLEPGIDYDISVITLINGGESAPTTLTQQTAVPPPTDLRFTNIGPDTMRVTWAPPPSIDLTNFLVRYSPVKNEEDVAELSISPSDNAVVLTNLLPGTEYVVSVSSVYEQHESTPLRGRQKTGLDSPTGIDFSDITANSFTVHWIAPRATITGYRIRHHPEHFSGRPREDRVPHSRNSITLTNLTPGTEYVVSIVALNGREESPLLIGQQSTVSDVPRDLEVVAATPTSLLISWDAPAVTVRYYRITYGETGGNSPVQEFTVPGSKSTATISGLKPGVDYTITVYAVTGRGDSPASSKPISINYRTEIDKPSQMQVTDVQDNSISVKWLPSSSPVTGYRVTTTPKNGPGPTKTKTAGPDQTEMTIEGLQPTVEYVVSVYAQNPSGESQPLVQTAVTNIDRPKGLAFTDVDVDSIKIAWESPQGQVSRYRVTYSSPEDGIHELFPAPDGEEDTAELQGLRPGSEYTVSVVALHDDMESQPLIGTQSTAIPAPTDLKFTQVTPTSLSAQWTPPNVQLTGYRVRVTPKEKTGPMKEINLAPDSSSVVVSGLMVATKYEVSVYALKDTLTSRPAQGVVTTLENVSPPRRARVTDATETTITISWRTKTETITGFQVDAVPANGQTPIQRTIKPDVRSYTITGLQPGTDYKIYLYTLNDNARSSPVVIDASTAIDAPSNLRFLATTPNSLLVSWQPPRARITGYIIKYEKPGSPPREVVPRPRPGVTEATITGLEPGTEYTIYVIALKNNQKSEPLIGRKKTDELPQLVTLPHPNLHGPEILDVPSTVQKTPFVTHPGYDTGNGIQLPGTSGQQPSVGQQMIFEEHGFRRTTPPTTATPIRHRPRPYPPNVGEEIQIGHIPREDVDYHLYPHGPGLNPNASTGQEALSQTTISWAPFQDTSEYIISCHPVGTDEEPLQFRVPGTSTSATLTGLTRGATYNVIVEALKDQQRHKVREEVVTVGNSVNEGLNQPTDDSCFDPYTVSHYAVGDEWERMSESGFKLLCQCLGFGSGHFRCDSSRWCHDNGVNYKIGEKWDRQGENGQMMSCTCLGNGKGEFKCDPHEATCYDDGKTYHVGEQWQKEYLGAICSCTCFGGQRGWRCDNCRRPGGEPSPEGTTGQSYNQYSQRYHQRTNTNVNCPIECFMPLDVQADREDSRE
Series [8] deals with the molecule itself. In words: crystal structure (FIG. 12C).

B1: Fab10C12 (Fab, V domains shown)
VH: QVQLQQPGTELVKPGASVKLSCKASGYTFTNYWMHWVKQRPGQGLEWIGNIGPSSGNTNYNENFKTKATLTVDKSSSTAYMQLSSLTSEDSAVYFCARWGSIRAMDYWGQGTSVTVSS
VL: SIVMTQTPKFLFVSVGDRVTITCKASQSVNNDVAWYQQKPGQSPKLLIYFASNRYTGVPDRFTGSGYGTDFTFTINTVQAEDLAVYFCQQDYSSPQTFGGGTKLEVTR
In general, Kd refers to the equilibrium constant for the complex coming apart. Molecule B1 showed an equilibrium dissociation constant (Kd) in series [1] of 7.28 nM.

B2: Ag43 passenger domain (Ag43^α) from UPEC strain UTI189 (other)
chain: ADTVVQAGETVNGGTLTNHDNQIVLGTANGMTISTGLEYGPDNEANTGGQWIQNGGIANNTTVTGGGLQRVNAGGSVSDTVISAGGGQSLQGQAVNTTLNGGEQWVHEGGIATGTVINEKGWQAVKSGAMATDTVVNTGAEGGPDAENGDTGQTVYGDAVRTTINKNGRQIVAAEGTANTTVVYAGGDQTVHGHALDTTLNGGYQYVHNGGTASDTVVNSDGWQIIKEGGLADFTTVNQKGKLQVNAGGTATNVTLTQGGALVTSTAATVTGSNRLGNFTVENGNADGVVLESGGRLDVLEGHSAWKTLVDDGGTLAVSAGGKATDVTMTSGGALIADSGATVEGTNASGKFSIDGISGQASGLLLENGGSFTVNAGGLASNTTVGHRGTLTLAAGGSLSGRTQLSKGASMVLNGDVVSTGDIVNAGEIRFDNQTTPDAALSRAVAKGDSPVTFHKLTTSNLTGQGGTINMRVRLDGSNASDQLVINGGQATGKTWLAFTNVGNSNLGVATSGQGIRVVDAQNGATTEEGAFALSRPLQAGAFNYTLNRDSDE
As to B2, the binding result in series [2] is “binds”.

B3: TibA passenger domain (TibA^α) from the enterotoxigenic E. coli strain H10407 (other)
chain: YDNQTIGRGETSKSMHLSAGDTAKNTTINSGGKQYVSSGGSATSTTINIGGVQHVSSGGSATSSTINSGGHQHVSSGGSATNTTVNNGGRQTVFSGGSAMGTIINSGGDQYVISGGSATSASVTSGARQFVSSGGIVKATSVNSGGRQYVRDGGSATDTVLNNTGRQFVSSGGSAAKTTINSGGGMYLYGGSATGTSIYNGGRQYVSSGGSATNTTVYSGGRQHVYIDGNVTETTITSGGMLQVEAGGSASKVIQNSGGAVITNTSAAVSGTNDNGSFSIAGGSAVNMLLENGGYLTVFDGHQASDTMVGSDGTLDVRSGGVLYGTTTLTDKGALVGDVVTNEGNLYYLNNSTATFTGTLTGTGTLTQEGGNTRFSGLLSQDGGIFLQSGGAMTMDALQAKANVTTQSGTTLTLDNGTILTGNVAGDSTGAGDMAVKGASVWHLDGDSTVGALTLDNGTVDFRPSTTTRMTPAFQAVSLALGSLSGSGTFQMNTDIASHTGDMLNVAGNASGNFVLDIKNTGLEPVSAGAPLQVVQTGGGDAAFTLKGGKVDAGTWEYGLSKENTNWYLKADT
For B3, the binding result in series [3] is on record as “binds”.
As for B4, the binding result in series [4] is given as “binds”.

B5: Ag43 passenger domain (Ag43^α) from E. coli strain EDL933 (other)
chain: ADKVVQAGETVNDGTLTNHDNQIVFGTANGMTISTGLELGPDSEENTGGQWIQNGGIAGNTTVTTNGRQVVLEGGTASDTVIRDGGGQSLNGLAVNTTLNNRGEQWVHEGGVATGTIINRDGYQSVKSGGLATGTIINTGAEGGPDSDNSYTGQKVQGTAESTTINKNGRQIILFSGLARDTLIYAGGDQSVHGRALNTTLNGGYQYVHRDGLALNTVINEGGWQVVKAGGAAGNTTINQNGELRVHAGGEATAVTQNTGGALVTSTAATVIGTNRLGNFTVENGKADGVVLESGGRLDVLESHSAQNTLVDDGGTLAVSAGGKATSVTITSGGALIADSGATVEGTNASGKFSIDGTSGQASGLLLENGGSFTVNAGGQAGNTTVGHRGTLTLAAGGSLSGRTQLSKGASMVLNGDVVSTGDIVNAGEIRFDNQTTPNAALSRAVAKSNSPVTFHKLTTTNLTGQGGTINMRVRLDGSNASDQLVINGGQATGKTWLAFTNVGNSNLGVATTGQGIRVVDAQNGATTEEGAFALSRPLQAGAFNYTLNRDSDE
For B5, the binding result in series [5] is reported as “binds”.

B6: UpaB α-domain (α^UpaB) from UPEC strain CFT073 (other)
chain: TDSTVSTDPVTLNTEKTTLDQDVVINGDNKITAVTIETSDSDKDLNVTFGGHDITAASTVNQDFVEGVKVSGNKNVVINATDSTITAQGEGTYVRTAMVIDSTGDVVVNGGNFVAKNEKGSATGISLEATTGNNLTLNGTTINAQGNKSYSNGSTAIFAQKGNLLQGFDGDATDNITLADSNIINGGIETIVTAGNKTGIHTVNLNIKDGSVIGAANNKQTIYASASAQGAGSATQNLNLSVADSTIYSDVLALSESENSASTTTNVNMNVARSYWEGNAYTFNSGDKAGSDLDINLSDSSVWKGKVSGAGDASVSLQNGSVWNVTGSSTVDALAVKDSTVNITKATVNTGTFASQNGTLIVDASSENTLDISGKASGDLRVYSAGSLDLINEQTAFISTGKDSTLKATGTTEGGLYQYDLTQGADGNFYFVKNTHKASNASSVIQAMAAAPANVANLQADTL
notes: also called α^UPaB (native)
With B6, the binding result in series [6] is listed as “no binding”. Binding in series [7] was characterised by a dissociation constant (Kd) of 45.2 µM.

B7: Ag43b passenger domain (Ag43b^α) from uropathogenic E. coli strain CFT073 (other)
chain: ADSVVPAGETVNGGTLINHDRQFVSGTADGMTVSTGLELGADSDNNTGGQQIARGGTARNTRVTANGLQDVMAGGSTSDTVISTGGGQNLRGKASGTVLNGGDQWIHAGGRASGTVINQDGYQTIKHGGLVTGTIVNTGAEGGPDSENVSTGQMVGGIAESTTINKNGRQVIWSSGIARDTLIYTGGDQTVHGEAHNTRLEGGNQYVHKYGLALNTVINEGGWQVVKAGGTAGNTTINQNGELRVHAGGEASDVTQNTGGALVTSTAATVTGTNRLGAFSVVEGKADNVVLENGGRLDVLSGHTATRTLVDDGGTLDVRNGGTATAVSMGNGGVLLADSGAAVSGTRSDGTAFRIGGGQADALMLEKGSSFTLNAGDTATDTTVNGGLFTARGGSLAGTTTLNNGATFTLAGKTVNNDTLTIREGDALLQGGALTGNGRVEKSGSGTLTVSNTTLTQKAVNLNEGTLTLNDSTVTTDIIAHRGTALKLTGSTVLNGAIDPTNVTLTSGATWNIPDNATVQSVVDDLSHAGQIHFTSARTGKFVPTTLQVKNLNGQNGTISLRVRPDMAQNNADRLVIDGGRATGKTILNLVNAGNSGTGLATTGKGIQVVEAINGATTEEGAFVQGNMLQAGAFNYTLNRDSDESWYLRSEE
notes: also called Ag43bCFT073^α
For B7, the binding result in series [8] is on record as “binds”.
